From US20250376539A1 (KIRA PHARMACEUTICALS SUZHOU, published 2025) come the findings set out here.

The labels stand for the following.
B1: 3.2 H2-10 parental (antibody, V domains shown)
VH: EVQLLESGGGLVQPGGSLRLSCAASGFTFRHYAMSWVRQAPGKGLEWVSLISGSGASTHYADSVKGRFTISRDNSENMLYLQMNSLRAEDTAVYYCAKDSLAVAGSEYFQHWGQGTLVTVSS
VL: SYVLTQAPSVSVAPGQTARITCGGNYFGGKSVHWYQQRPGQAPVLVVYDDSDRPSGIPERFSGSKSGNTATLAISRVEAGDEAAYYCQVYDTSSDHWVFGGGTKLTVL
notes: Histidine mutant of 3.2
B2: 3.2 H2-10 × L2-6 (antibody, V domains shown)
VH: B1 VH
VL: B1 VL with P54H
notes: Histidine mutant of 3.2
B3: 3.2 H2-10 × L1-8 (antibody, V domains shown)
VH: B1 VH
VL: B1 VL with K30H
notes: Histidine mutant of 3.2
B4: 3.2 H2-10 × L2-5 (antibody, V domains shown)
VH: B1 VH
VL: B1 VL with R53H
notes: Histidine mutant of 3.2
B5: 3.2 H2-10 × L3-7 (antibody, V domains shown)
VH: B1 VH
VL: B1 VL with S94H
notes: Histidine mutant of 3.2
B6: 3.2 H2-10 × L2-3 (antibody, V domains shown)
VH: B1 VH
VL: B1 VL with S51H
notes: Histidine mutant of 3.2
B7: 3.2 H2-10 × L3-5 (antibody, V domains shown)
VH: B1 VH
VL: B1 VL with T92H
notes: Histidine mutant of 3.2
B8: 3.2 H2-10 × L3-4 (antibody, V domains shown)
VH: B1 VH
VL: B1 VL with D91H
notes: Histidine mutant of 3.2
B9: 3.2 H2-10 × L2-7 (antibody, V domains shown)
VH: B1 VH
VL: B1 VL with S55H
notes: Histidine mutant of 3.2
B10: 3.2 H2-10 × L2-1 (antibody, V domains shown)
VH: B1 VH
VL: B1 VL with D49H
notes: Histidine mutant of 3.2
B11: 3.2 H2-10 × L3-11 (antibody, V domains shown)
VH: B1 VH
VL: B1 VL with V98H
notes: Histidine mutant of 3.2
B12: 3.2 H2-10 × L1-7 (antibody, V domains shown)
VH: B1 VH
VL: B1 VL with G29H
notes: Histidine mutant of 3.2

Where a chain is given by its changes, count along the chain named.

One experiment concerns the target T1, recombinant human complement C2 (NP_000054.2), C-terminal 6His-tag, made in house (CHO cell expression) (human, UniProt P06681 21-752).
T1 construct: a linker before the tag is not described; also called human C2; Human C2
T1 sequence: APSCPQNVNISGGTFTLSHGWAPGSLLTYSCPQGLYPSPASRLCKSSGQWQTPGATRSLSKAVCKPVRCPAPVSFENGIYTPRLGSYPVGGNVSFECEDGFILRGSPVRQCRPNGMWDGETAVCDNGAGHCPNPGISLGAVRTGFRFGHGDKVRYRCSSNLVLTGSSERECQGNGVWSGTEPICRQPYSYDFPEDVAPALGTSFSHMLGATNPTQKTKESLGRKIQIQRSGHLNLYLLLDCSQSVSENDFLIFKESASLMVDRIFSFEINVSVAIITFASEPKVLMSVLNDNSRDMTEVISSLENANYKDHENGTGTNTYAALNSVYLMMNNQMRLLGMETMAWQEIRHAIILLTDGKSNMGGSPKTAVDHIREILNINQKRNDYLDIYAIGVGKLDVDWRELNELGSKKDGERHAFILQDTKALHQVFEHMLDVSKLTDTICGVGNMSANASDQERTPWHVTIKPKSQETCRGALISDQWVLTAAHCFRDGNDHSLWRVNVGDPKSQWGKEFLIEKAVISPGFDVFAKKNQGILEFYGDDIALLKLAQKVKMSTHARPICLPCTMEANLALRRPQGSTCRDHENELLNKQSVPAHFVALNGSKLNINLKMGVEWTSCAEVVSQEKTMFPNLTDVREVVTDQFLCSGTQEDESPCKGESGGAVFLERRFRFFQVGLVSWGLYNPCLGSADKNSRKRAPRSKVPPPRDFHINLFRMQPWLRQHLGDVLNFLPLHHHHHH
Kind of experiment: BLI (Gator); ratio of dissociation at pH 5.8 to pH 7.4. On the procedure:
(§1) The histidine mutant constructs in Table 4 were tested for their pH-dependent dissociation from human C2. Probe-immobilized anti-C2 antibodies were incubated with C2 at pH 7.4 for 600s, followed by a 600s dissociation period in K Buffer at pH 7.4 or pH 5.8. The data were processed and analyzed by the Gator evaluation software.
As for B1, the “Fold dissociation pH 5.8/pH 7.4” value came to 6.6 fold.
Same read-out and setting: under B2 stands 8.8 fold; under B3, 10.4 fold; under B4, 9.7 fold.
As to B5, the “Fold dissociation pH 5.8/pH 7.4” value was 8.6 fold.
The same measure, in the same setting: under B6 stands 8.1 fold; under B7, 7.2 fold.
In the case of B8, the “Fold dissociation pH 5.8/pH 7.4” value was 6.2 fold.
On the same count and under the same terms, with B9 the figure was 9.8 fold.
As to B10, the “Fold dissociation pH 5.8/pH 7.4” value was 5.8 fold.
Regarding B11, the “Fold dissociation pH 5.8/pH 7.4” value came to 8.7 fold.
On the same count and under the same terms, under B12 stands 12.8 fold.

Another experiment deals with T1, recombinant human complement C2 …. Kind of experiment: BLI (Gator), antibody on probe; 600 s association at pH 7.4, 600 s dissociation at pH 7.4. The procedure: as §1
Turning to B1, the “Dissociation (%) pH 7.4” value came out at 7.74%.
In the case of B2, the “Dissociation (%) pH 7.4” value came out at 5.97%.
On the same count and under the same terms, with B3 the figure was 5%; with B4, 5.33%.
Regarding B5, the “Dissociation (%) pH 7.4” value was found to be 7%.
Consider B6, for which the “Dissociation (%) pH 7.4” value came out at 5.69%.
For B7, the “Dissociation (%) pH 7.4” value turned out to be 12.6%.
Regarding B8, the “Dissociation (%) pH 7.4” value came to 13.3%.
The same measure, in the same setting: with B9 the figure was 5.39%.
In the case of B10, the “Dissociation (%) pH 7.4” value came to 13.9%.
Turning to B11, the “Dissociation (%) pH 7.4” value was 7.16%.
The same measure, in the same setting: under B12 stands 4.05%.

The target is the same in a further experiment. Kind of experiment: BLI (Gator), antibody on probe; 600 s association at pH 7.4, 600 s dissociation at pH 5.8. On the procedure: as §1
Regarding B1, the “Dissociation (%) pH 5.8” value was determined as 51.3%.
For B2, the “Dissociation (%) pH 5.8” value turned out to be 52.6%.
On the same count and under the same terms, under B3 stands 51.8%; under B4, 51.6%; under B5, 60%.
Consider B6, for which the “Dissociation (%) pH 5.8” value worked out at 46.2%.
B7: the “Dissociation (%) pH 5.8” value came out at 90.7%.
In the case of B8, the “Dissociation (%) pH 5.8” value came to 82.8%.
On to B9, for which the “Dissociation (%) pH 5.8” value stood at 52.7%.
Turning to B10, the “Dissociation (%) pH 5.8” value is 81.3%.
For the molecule B11, the “Dissociation (%) pH 5.8” value came to 62.6%.
The same measure, in the same setting: under B12 stands 52%.
